Reference: paper PMC9321951, “Thiol redox switches regulate the oligomeric state of cyanobacterial Rre1, RpaA and RpaB response regulators” (Febs Letters, 2022)
“And” between values parts separate entries of the source, which are not always exact repeats. Identical values can stand only once. Blank lines part the entries; values can stand above or below the molecule they belong to.

Legend:
[1] = target: Regulator of Photosynthesis and Photopigment-related gene expression A (RppA), full-length, MBP-tagged (Synechocystis sp. PCC 6803) (UniProt Q55933); experiment: non-reducing urea-SDS/PAGE; 2.5 µM RppA with 2 mM diamide, 30 min, room temperature; non-reducing SDS-6 M urea-8% PAGE
[2] = target: Regulator of Photosynthesis and Photopigment-related gene expression A (RppA), full-length, MBP-tagged (Synechocystis sp. PCC 6803) (UniProt Q55933); experiment: SEC; RppA oxidised with 2 mM diamide, desalted; 0.85 mg on Superdex S200 10/300GL Increase; 100 mM HEPES pH 8.0, 100 mM NaCl; approximate masses from a calibration curve
[3] = target: Regulator of Phycobilisome Association B (RpaB), full-length, MBP-tagged (Synechocystis sp. PCC 6803); experiment: SEC; RpaB oxidised with 2 mM H2O2, desalted; 0.85 mg on Superdex S200 10/300GL Increase; 5% glycerol, 300 mM NaCl, 100 mM HEPES pH 8.0; approximate masses from a calibration curve
[4] = target: Regulator of Phycobilisome Association B (RpaB), full-length, MBP-tagged (Synechocystis sp. PCC 6803); experiment: non-reducing urea-SDS/PAGE; 2.5 µM Rre1, RpaA or RpaB, air-exposed untreated or with 2 mM diamide or 2 mM H2O2, 30 min, room temperature; non-reducing SDS-6 M urea-8% PAGE; shows disulfide-linked oligomers
[5] = target: the molecule itself; experiment: SEC; Rre1 or RpaA oxidised with 2 mM H2O2, desalted; 0.85 mg on Superdex S200 10/300GL Increase; 100 mM HEPES pH 8.0, 100 mM NaCl; approximate masses from a calibration curve

stoichiometry N [1]: 3
stoichiometry N [2]: 3
Molecule: Regulator of Photosynthesis and Photopigment-related gene expression A (RppA), full-length, MBP-tagged (from UniProt Q55933 1-234) (natural protein)

stoichiometry N [3]: 4 and 3
stoichiometry N [4]: 2
Molecule: Regulator of Phycobilisome Association B (RpaB), full-length, MBP-tagged (natural protein)

B1: Response Regulator 1 (Rre1), full-length, MBP-tagged (natural protein, Synechocystis sp. PCC 6803, UniProt P72781 1-231, looked up)
chain: MAEPISLLLVDDEPGVRESVQAFLEDSGDFKVDLAANATEAWDYLQHHLPALVISDIMMPQVDGYQFLQKLREDARFQSLPVVFLTARGMTGDRIQGYQTGCDAFLSKPFDPDELEAIVRNLLARQQASSDAGSESAKLQEIYQEIRALKEQIGQPSGIHTTPSPIKLDFTPREQSVLDLVSQGLMNKEIAAQLKTSVRNVEKYVSRLFTKTGTNSRTELVRFALQHGLTE
notes: Rre1 (response regulator 1), Synechocystis sp; Cloned KpnI/XhoI into pETG-41A; theoretical mass of the MBP-tagged monomer printed as 75 kDa
stoichiometry N [5]: 3 and 4
